Molecular target: human nascent polypeptide-associated complex (NAC), unlabeled (human, UniProt Q13765 1-215; P20290-2 1-162)
Assay: other fluorescence titration; competition: 1 nM RNC^BDP and 20 nM NAC^Cy3B pre-incubated, unlabeled NAC or NACmt added; FRET fit to Eq. (6); Assay buffer with 1 mg/mL BSA
Details: both partners purified

Row | Binder | Kd [nM]
1 | ribosome-nascent chain complex bearing the first ~90 amino acids of pPL(ss), labelled with BODIPY-FL on the nascent chain (complex, axial-trans-cyclooct-2-en-L-Lysine (TCOK) at an amber codon one residue upstream of the signal sequence, labelled with tetrazine-conjugated BODIPY-FL (BDP)) MDSKGSSQKGSKLALALLLLLLALALCQGVVSTPVCPNGPGNCQVSLRDLFDRAVMVSHYIHDLSSEMFNEFDKRYAQGKGFITMALNSCHTV | 0.55
2 | ribosome-nascent chain complex bearing the first ~90 amino acids of pPL(ssmt), labelled with BODIPY-FL on the nascent chain (complex, axial-trans-cyclooct-2-en-L-Lysine (TCOK) at an amber codon one residue upstream of the signal sequence, labelled with tetrazine-conjugated BODIPY-FL (BDP)) MDSKGSSQKGSKLLLRRVVSNLLLCQGVVSTPVCPNGPGNCQVSLRDLFDRAVMVSHYIHDLSSEMFNEFDKRYAQGKGFITMALNSCHTV | 0.5

Reference: publication PMC7673040 (Nature Communications, 2020)
